Experimental findings from the supplement of paper PMC12042874 are described below.

± gives the uncertainty stated by the source.

This series is described as follows: amyloid nucleation score (Sup35N fusion, yeast selection) (log enrichment); library NNK2; higher = more nucleation; inactive = no reads after selection. The gist of the method: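 Sup35N fusions to peptides of 20 random codons were expressed in psi-negative yeast, induced 24 hours with 100 μM copper sulfate, and grown 7 days at 30°C on medium lacking adenine and uracil. Input and output plasmid inserts were sequenced by Illumina. The nucleation score is the DiMSum log enrichment of output over input reads, centred on the mode score of non-aggregating sequences. Sequences with under 100 input reads were excluded.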
The substance GLSCVFRMRIE displayed an amyloid nucleation score of 6.266 ± 0.05.

GFNGRALKLERARDLVCGRM yielded an amyloid nucleation score of 0.386 ± 0.29.

In turn, FYCIARERLRMVNFT gave an amyloid nucleation score of -0.845 ± 0.62.

The substance FIDFGVVVSWVL registered an amyloid nucleation score of 0.985 ± 0.3.

In the case of MPPFGNDCTDREDVCMGRFV, the amyloid nucleation score result was “inactive”.

Substance YHCGFGAS yielded an amyloid nucleation score of 0.837 ± 0.44.

As to LTFPA, the amyloid nucleation score is -0.206 ± 1.1.

Substance RKCSGNAMRSLCSDPVRCVK yielded an amyloid nucleation score of 0.669 ± 0.32.

On to MLGRKHSWVA, for which the amyloid nucleation score turned out to be 1.67 ± 0.33.

The substance ILRVSGDAERSILFCPCLAI returned an amyloid nucleation score of -0.255 ± 0.25.

As to CLPFYCTFGSVVARAGVYH, the amyloid nucleation score result was “inactive”.

MCSQGCTHFRVAWPLRACRW came in with an amyloid nucleation score of 3.85 ± 0.072.

As to SSKSCVPQVLINILDDSTVN, the amyloid nucleation score was -0.632 ± 0.79.

In turn, RPGHYRTWYFSGFYSSPCQT registered an amyloid nucleation score of 1.49 ± 0.19.

YYRYPYTLKCPGGLQERQHL registered an amyloid nucleation score of -0.028 ± 0.76.

In turn, FWLSSESANYTCFKRYVG came in with an amyloid nucleation score of 0.25 ± 0.47.

Take DYCSYTAL: the amyloid nucleation score was -0.081 ± 1.1.

For the substance DLGDKFL, the amyloid nucleation score was determined as 1.67 ± 0.23.

Consider CTTSWKMSCKFALGN, for which the amyloid nucleation score worked out at 4.04 ± 0.07.

Consider TLLSTEMHDYKLLARQRCHP, for which the amyloid nucleation score was 1.24 ± 0.38.

Turning to RWMVHAA, the amyloid nucleation score is -0.251 ± 0.76.

Take DVVCRMRATYCWALRVMGQR: the amyloid nucleation score was found to be 1.58 ± 0.29.

CVWHVF: the amyloid nucleation score entry was “inactive”.

In turn, RALEIALMLSTTCKSGFRRE came in with an amyloid nucleation score of 5.56 ± 0.06.

The substance DYIFGYSTILFVMLCIHNFY registered an amyloid nucleation score of -1.35 ± 0.78.

Substance MSMYDAAIEFLLRCGYVRSY came in with an amyloid nucleation score of 0.328 ± 0.34.

Turning to LYAVRSALYFCTVYFGSSNR, the amyloid nucleation score is 3.18 ± 0.13.

Consider GLSRLTRYNNGNITTHSNWH, for which the amyloid nucleation score is -0.074 ± 1.1.

Consider FGYHGSYMWYAFQGHYNKGY, for which the amyloid nucleation score was 0.743 ± 0.42.

As for LTIVLQLGLL, the amyloid nucleation score stood at 8.52 ± 0.066.

PARMNLYVCIYV displayed an amyloid nucleation score of 7.32 ± 0.081.

SRLLIREYNLVSNDKFIYFV came in with an amyloid nucleation score of 3.01 ± 0.073.

For the substance LWFYFFRDYLIGPMWNKIVI, the amyloid nucleation score is -0.898 ± 1.1.

As for CGSRQAA, the amyloid nucleation score amounted to 5.3 ± 0.085.

With LCNSEIFNMANISMS, the amyloid nucleation score turned out to be 0.498 ± 0.19.

Take KLKSVRDLSCLSYHSDIKVK: the amyloid nucleation score stood at 3.58 ± 0.055.

In the case of DSACFYENSM, the amyloid nucleation score was -0.48 ± 0.79.

As for TRHSGKLLFNILMFRVMSCR, the amyloid nucleation score was -0.36 ± 0.74.

YTLNPGFHHRFCVWTA: the amyloid nucleation score entry is “inactive”.

IGLHVWHLSLKGSSDLSGTV had an amyloid nucleation score of 1.85 ± 0.12.

In turn, EMIIL gave an amyloid nucleation score of -0.259 ± 0.32.

GKQTP displayed an amyloid nucleation score of -0.711 ± 0.45.

As to WISNAWLYLWKHR, the amyloid nucleation score was determined as 0.586 ± 0.81.

On to SPSDSAL, for which the amyloid nucleation score is -0.501 ± 0.64.

Substance SSMSNIEE returned an amyloid nucleation score of -1.15 ± 0.42.

With FCFMIEGIFMCRLLLSRASF, the amyloid nucleation score entry was “inactive”.

Turning to SRLISFLRSRQDDSQISLGW, the amyloid nucleation score is -0.445 ± 0.49.

ALYFVIQLPV showed an amyloid nucleation score of -0.677 ± 0.63.

CYRHSERYRTSSLLSWERGP displayed an amyloid nucleation score of 0.783 ± 0.57.

On to VPNVCAGYQPSETETYVLVR, for which the amyloid nucleation score was determined as 0.185 ± 0.65.

As for VMRHERTNFIYSKWWGFVEE, the amyloid nucleation score is -0.011 ± 0.65.

The substance VRSWTGPSEVQNCKSEFSGA had an amyloid nucleation score of 0.731 ± 0.28.

In turn, CINANRGRFLKEIMDLVLRE gave an amyloid nucleation score of -0.586 ± 0.23.

On to MSSNYWY, for which the amyloid nucleation score is -0.916 ± 1.1.

In turn, FCSVCDRL gave an amyloid nucleation score of 0.168 ± 0.23.

LSFFGRDDLNRLHN returned an amyloid nucleation score of -1.41 ± 1.1.

The substance IIEPYVHGVWKFHRFYLKSA yielded an amyloid nucleation score of -0.701 ± 0.55.

With RFDINHCIKRCRFGRLVAEI, the amyloid nucleation score came out at 3.12 ± 0.1.

In turn, FFPPFVNLGVGTYQV had an amyloid nucleation score of -1.37 ± 0.54.

Turning to PSSISLTVYKSRMGEYWCKG, the amyloid nucleation score result was “inactive”.

Regarding MANVADMIVDGLM, the amyloid nucleation score was 0.525 ± 0.49.

The substance KCSKLRGYTCIMLSIGCLNY registered an amyloid nucleation score of 2.71 ± 0.07.

ARGGKLLSCFCSGWRLDHVR came in with an amyloid nucleation score of 9.958 ± 0.051.

FVPAVEFVHHFAVWVWRE showed an amyloid nucleation score of 0.072 ± 1.1.

NSLYIFMVKYP had an amyloid nucleation score of 3.96 ± 0.049.

CVTRMDYTDVSDMHLM came in with an amyloid nucleation score of 0.307 ± 0.56.

GAGHNNLLEDAFTSRSVTAR returned an amyloid nucleation score of 0.489 ± 0.28.

Take SVVRTRTRTVRVMETWISVW: the amyloid nucleation score turned out to be 0.237 ± 1.

PANGS returned an amyloid nucleation score of -0.249 ± 1.

On to AMWFN, for which the amyloid nucleation score came to 0.932 ± 0.47.

As for SKTLAGIWSDGVHAEFDIKG, the amyloid nucleation score was -0.573 ± 0.79.

As to TVLLMIMMYFIANSFYVACG, the amyloid nucleation score was determined as 5.89 ± 0.066.

In turn, GGMGHVFITCWGYVYIDYLV had an amyloid nucleation score of 7.207 ± 0.025.

YYNIQLSFVDMVLMYYDESM yielded an amyloid nucleation score of 4.443 ± 0.04.

DEMARVYIHY: the amyloid nucleation score came out at 0.183 ± 0.74.

FTFIHFLCVSVHLLNSWS registered an amyloid nucleation score of 0.42 ± 0.56.

TFLWLLLY registered an amyloid nucleation score of 6.754 ± 0.034.

The substance YMSFPLDVLVICLCRIVIES had an amyloid nucleation score of 0.089 ± 1.1.

As for RTSGAVDCTHRFFSEWFKGV, the amyloid nucleation score result was “inactive”.

As for GPSLDLDNVDYIGDSTTYQL, the amyloid nucleation score entry was “inactive”.

As to QARYFFTAARYITVLWKSTF, the amyloid nucleation score is -0.487 ± 0.56.

In turn, GLIYIRDFSFREKGGCYQGL showed an amyloid nucleation score of -1.29 ± 1.1.

Substance VTRKTWFFVLCNQLFTLFAD yielded an amyloid nucleation score of 6.975 ± 0.058.

For the substance MFYFRFLKGTSQMIKAAMRS, the amyloid nucleation score was -0.059 ± 0.49.

As for SIGLLTGKWLPSLMVLYLLV, the amyloid nucleation score stood at 1.29 ± 0.44.

KRHNR registered an amyloid nucleation score of 0.846 ± 0.48.

As for LNTVYCN, the amyloid nucleation score was -1.09 ± 0.47.

For ISIVPYYNLGIGGRVTGSEA, the amyloid nucleation score was determined as 0.012 ± 0.3.

SFFLFWRFCIGAW: the amyloid nucleation score is -0.977 ± 0.63.

On to IFDQVNSRYRYAVGYGKW, for which the amyloid nucleation score result was “inactive”.

HLFACSTYKSSHRVQVCTVI: the amyloid nucleation score is -0.497 ± 1.

The substance ISWVLRCQSKSRWLIQ gave an amyloid nucleation score of 0.627 ± 0.57.

In turn, GSVYKCLGSWVIYRFIFSWV displayed an amyloid nucleation score of 1.19 ± 0.66.

For the substance FALHGEFFYHKKRSQGFRAH, the amyloid nucleation score is -1.36 ± 0.61.

With VLDAHLY, the amyloid nucleation score entry was “inactive”.

ARVIECLHGRN yielded an amyloid nucleation score of -0.147 ± 0.44.

With MRWFNNVFFGYVVSVSRSWN, the amyloid nucleation score was -1.01 ± 1.1.

For the substance IKNSRNVLLMPLLANHWHNS, the amyloid nucleation score is -0.58 ± 0.63.

For VTWGIIYRLSDG, the amyloid nucleation score came out at 3.58 ± 0.09.

With YNSTLKFLSKLKLVNIIGTV, the amyloid nucleation score was -1.26 ± 1.1.

For RMSHWLSYWVDKS, the amyloid nucleation score turned out to be 0.938 ± 0.57.

Substance RLYPLIVQFFMVCKT had an amyloid nucleation score of 1.48 ± 0.23.

For VYKYI, the amyloid nucleation score is -0.578 ± 1.1.

For CPCYCLTSFACLGNSVPTWR, the amyloid nucleation score turned out to be 10.15 ± 0.043.

VVTFTDYI gave an amyloid nucleation score of 0.237 ± 1.

Regarding RRRTEGN, the amyloid nucleation score is 0.304 ± 0.8.

On to AEGSDGCLKLNGAITIGHMI, for which the amyloid nucleation score result is “inactive”.

WVSSIGGDWGMIYSLLQLYW yielded an amyloid nucleation score of 0.205 ± 0.46.

With GVTSCLRRPWFKYVILSPRP, the amyloid nucleation score is 1.44 ± 0.21.

Turning to VMGNFRFYRSMLAFDYDEGV, the amyloid nucleation score is 1.14 ± 0.18.

On to LVSERGSWVGLRFCSRSSVT, for which the amyloid nucleation score was determined as 0.359 ± 0.56.

With VSSMHFFWF, the amyloid nucleation score was -0.378 ± 0.54.

In turn, CMSNAKCKGVDFAAGKLLSC registered an amyloid nucleation score of -0.004 ± 0.49.

Consider DLGMECTQVGRLDVVWELLI, for which the amyloid nucleation score came out at 0.632 ± 0.31.

Take TGLVFYSSRFYVTVSMVLKE: the amyloid nucleation score result was “inactive”.

Turning to RRMTCALYVIRWFSVHYFYL, the amyloid nucleation score is -1.79 ± 0.75.

With SRTRGTLDGS, the amyloid nucleation score is 0.241 ± 0.36.

Consider YDNTEASGLSWRTLLQGAVW, for which the amyloid nucleation score stood at 0.562 ± 0.45.

For the substance KNFFSRRTW, the amyloid nucleation score stood at 2.98 ± 0.14.

The substance HLSTSGYVAFLKHLTLCKVL came in with an amyloid nucleation score of -0.347 ± 1.1.

In turn, ELAHQNENFRGRRFVAQ had an amyloid nucleation score of -0.038 ± 1.1.

Take GGRMHCARRTRMWVHLDAGM: the amyloid nucleation score was determined as 5.823 ± 0.049.

Take VGELVMLFSKYSSVNVRGFA: the amyloid nucleation score was 3.04 ± 0.075.

In the case of INCSAFNHCIYSSPT, the amyloid nucleation score was determined as 2.82 ± 0.082.

Consider LYKYLCAIIKNVDKVVPLRM, for which the amyloid nucleation score was -0.904 ± 0.49.

Substance LMMTSVYLKLGWSFFIFRHR came in with an amyloid nucleation score of -0.238 ± 1.1.

Substance HNVYMVFYFAFFSPFMIRYI came in with an amyloid nucleation score of 3.44 ± 0.088.

Consider AMLRPQTDHGVSSIHSLIIG, for which the amyloid nucleation score result is “inactive”.

The substance QWVIKFIHRQIVVPFKFAGI had an amyloid nucleation score of -0.385 ± 0.8.

Consider LFLTHPARWSSNLRRLL, for which the amyloid nucleation score was determined as 0.069 ± 0.3.

The substance RAVHARYLL registered an amyloid nucleation score of 1.86 ± 0.15.

The substance TTKPSAILWGSTSKRPRLPR returned an amyloid nucleation score of 1.23 ± 0.34.

In the case of WCLFVLRRADTFRKGESVTC, the amyloid nucleation score amounted to 1.79 ± 0.45.

Take SVRHCLSLSSM: the amyloid nucleation score result is “inactive”.

GVHLYLNVYVTLKFTATGDS returned an amyloid nucleation score of 5.79 ± 0.077.

Substance LPCGVSLALHSWENYILNRP registered an amyloid nucleation score of 0.55 ± 0.52.

In turn, RMQVYGDMSKCKDSWFCFRT displayed an amyloid nucleation score of 0.703 ± 0.4.

VIYFHHVTYSIYPLL gave an amyloid nucleation score of 0.561 ± 0.62.

Turning to KQFDMDAWLTWSRMVFMSPV, the amyloid nucleation score was determined as 0.044 ± 0.39.

IAIRFIDDYCGFRGV displayed an amyloid nucleation score of 0.288 ± 0.8.

NYLMWVITSTYWRHGRESWA gave an amyloid nucleation score of 3.03 ± 0.057.
